From patent US20250341517A1 (published 2025)
Ends that are not written are not given here. FAM = carboxyfluorescein (FAM) fluorescent label

B1: L1 peptide (peptide)
peptide: TYLEWYPQKPGQSPKLLIYK
modifications: not fully specified (N-terminus)
notes: Synthetic 20-mer homologous to the FR2 region of the light chain; The label differs between experiments; also called L1 switching peptide; first peptide compound L1
B2: H1 peptide (peptide)
peptide: SYWIHWVKQRPGQGLEWIGE
modifications: not fully specified (N-terminus)
notes: Synthetic 20-mer homologous to the FR2 region of the heavy chain; The fluorescent label differs between experiments; also called H1 switching peptide; third peptide compound H1
B3: L2 peptide (peptide)
peptide: {FAM}-VYYCFQGSHVPFTK
notes: Synthetic 14-mer homologous to the FR3 or FR4 region of the light chain; also called L2 switching peptide; second peptide compound L2
B4: H2 peptide (peptide)
peptide: VYYCAREPTGTGIYFDVWGK
modifications: not fully specified (N-terminus)
notes: Synthetic 20-mer homologous to the FR3 or FR4 region of the heavy chain; The label differs between experiments; also called H2 switching peptide; fourth peptide compound H2

Target: B4
Assay: FRET on microplate: FAM-L1 immobilised, TAMRA-H2 incubated

B1: binds.

Target: B3
Assay: FRET on microplate: FAM-L2 immobilised, TAMRA-H1 incubated

B2: binds.

These binders were tested against T1, Anti-CRP antibody(r) (assay: labelled peptide on antibody immobilised on microplate; antigen CRP).
T1 construct: also called rabbit IgG (CRP)

Going from B2 to B3, the “change (%) of fluorescence at bottom (B) of microplate” value (from here on “change (%) of fluorescence at bottom”) falls from -26.8% to -44.9%.

Compared with B4, B1 is lower in “change (%) of fluorescence at bottom” value: -39.5% for the first, -48.6% for the second.

First: B2
Second: B3
The “change (%) of fluorescence in solution (S)” value (from here on “change (%) … (S)”) of the first is lower: 152% for the first, 883% for the second.

Going from B4 to B1, the “change (%) … (S)” value rises from 677% to 778%.

Compared with B2, B3 is higher in “fluorescence intensity at bottom (B) of microplate after antigen binding” value: 3600 for the first, 11200 for the second.

First: B4
Second: B1
The “fluorescence intensity at bottom (B) of microplate after antigen binding” value of the first is higher: 22200 for the first, 3460 for the second.

First: B2
Second: B3
The “fluorescence intensity at bottom (B) of microplate before antigen binding” value of the first is lower: 4910 for the first, 20400 for the second.

Compared with B4, B1 is lower in “fluorescence intensity at bottom (B) of microplate before antigen binding” value: 22200 for the first, 6720 for the second.

Going from B2 to B3, the “fluorescence intensity in solution (S) after antigen binding” value rises from 5660 to 32200.

Compared with B4, B1 is lower in “fluorescence intensity in solution (S) after antigen binding” value: 16300 for the first, 6500 for the second.

First: B2
Second: B3
The “fluorescence intensity in solution (S) before antigen binding” value of the first is lower: 2240 for the first, 3270 for the second.

Compared with B4, B1 is lower in “fluorescence intensity in solution (S) before antigen binding” value: 2100 for the first, 741 for the second.

The binders below were run against T2, Anti-HRP antibody(r) (assay: labelled peptide on antibody immobilised on microplate; antigen HRP).
T2 construct: Rabbit IgG, immobilised on a microplate; also called rabbit anti-HRP antibodies; anti-HRP antibody from a rabbit

Going from B2 to B3, the “change (%) of fluorescence at bottom” value rises from -87.7% to -74.5%.

Compared with B4, B1 is lower in “change (%) of fluorescence at bottom” value: -85.2% for the first, -87.3% for the second.

Going from B2 to B3, the “change (%) … (S)” value falls from 746% to 597%.

Compared with B4, B1 is lower in “change (%) … (S)” value: 698% for the first, 357% for the second.

First: B2
Second: B3
The “fluorescence intensity at bottom (B) of microplate after antigen binding” value of the first is lower: 1450 for the first, 3210 for the second.

Compared with B4, B1 is higher in “fluorescence intensity at bottom (B) of microplate after antigen binding” value: 1810 for the first, 1990 for the second.

Compared with B2, B3 is higher in “fluorescence intensity at bottom (B) of microplate before antigen binding” value: 11800 for the first, 12600 for the second.

Going from B4 to B1, the “fluorescence intensity at bottom (B) of microplate before antigen binding” value falls from 122000 to 15600.

Compared with B2, B3 is lower in “fluorescence intensity in solution (S) after antigen binding” value: 22000 for the first, 16100 for the second.

Compared with B4, B1 is lower in “fluorescence intensity in solution (S) after antigen binding” value: 18100 for the first, 12300 for the second.

Going from B2 to B3, the “fluorescence intensity in solution (S) before antigen binding” value falls from 2600 to 2320.

Compared with B4, B1 is higher in “fluorescence intensity in solution (S) before antigen binding” value: 2270 for the first, 2690 for the second.

What follows are binders tested against T3, Anti-hCG antibody(m) (assay: labelled peptide on antibody immobilised on microplate; antigen hCG).
T3 construct: also called mouse IgG (hCG)

Compared with B2, B3 is lower in “change (%) of fluorescence at bottom” value: -65.6% for the first, -90.7% for the second.

First: B4
Second: B1
The “change (%) of fluorescence at bottom” value of the first is lower: -88.5% for the first, -61.6% for the second.

Compared with B2, B3 is higher in “change (%) … (S)” value: 206% for the first, 456% for the second.

First: B4
Second: B1
The “change (%) … (S)” value of the first is higher: 416% for the first, 187% for the second.

Compared with B2, B3 is higher in “fluorescence intensity at bottom (B) of microplate after antigen binding” value: 1940 for the first, 3070 for the second.

Going from B4 to B1, the “fluorescence intensity at bottom (B) of microplate after antigen binding” value falls from 23300 to 1780.

First: B2
Second: B3
The “fluorescence intensity at bottom (B) of microplate before antigen binding” value of the first is lower: 5650 for the first, 33200 for the second.

First: B4
Second: B1
The “fluorescence intensity at bottom (B) of microplate before antigen binding” value of the first is higher: 23300 for the first, 4630 for the second.

First: B2
Second: B3
The “fluorescence intensity in solution (S) after antigen binding” value of the first is lower: 3920 for the first, 9400 for the second.

First: B4
Second: B1
The “fluorescence intensity in solution (S) after antigen binding” value of the first is higher: 8540 for the first, 3580 for the second.

Going from B2 to B3, the “fluorescence intensity in solution (S) before antigen binding” value rises from 1280 to 1690.

First: B4
Second: B1
The “fluorescence intensity in solution (S) before antigen binding” value of the first is higher: 1650 for the first, 1250 for the second.

The binders below were run against T2, Anti-HRP antibody(r) (assay: labelled peptide on immobilised rabbit anti-HRP antibody, papain cleavage).

First: B2
Second: B3
The “decrease of fluorescence intensity at the bottom of the microplate after papain treatment” value of the first is higher: 84.3% for the first, 72.5% for the second.

Compared with B4, B1 is higher in “decrease of fluorescence intensity at the bottom of the microplate after papain treatment” value: 58.7% for the first, 84.8% for the second.

Compared with B2, B3 is higher in “increase of fluorescence intensity in the solution after papain treatment” value: 2180% for the first, 2450% for the second.

Going from B4 to B1, the “increase of fluorescence intensity in the solution after papain treatment” value falls from 2360% to 1030%.

The binders below were run against T4, Anti-HBsAg antibody(g) (assay: labelled peptide on antibody immobilised on microplate; antigen HBsAg).
T4 construct: also called anti-HBsAg antibodies from goats; goat IgG (HBsAg)

First: B2
Second: B3
The “change (%) of fluorescence at bottom” value of the first is higher: -58.9% for the first, -64.8% for the second.

Going from B4 to B1, the “change (%) of fluorescence at bottom” value falls from -36.1% to -51.3%.

Compared with B2, B3 is higher in “change (%) … (S)” value: 410% for the first, 574% for the second.

Going from B4 to B1, the “change (%) … (S)” value rises from 412% to 638%.

Compared with B2, B3 is higher in “fluorescence intensity at bottom (B) of microplate after antigen binding” value: 4620 for the first, 9860 for the second.

Going from B4 to B1, the “fluorescence intensity at bottom (B) of microplate after antigen binding” value falls from 18800 to 5390.

Going from B2 to B3, the “fluorescence intensity at bottom (B) of microplate before antigen binding” value rises from 11200 to 28000.

First: B4
Second: B1
The “fluorescence intensity at bottom (B) of microplate before antigen binding” value of the first is higher: 29400 for the first, 11100 for the second.

First: B2
Second: B3
The “fluorescence intensity in solution (S) after antigen binding” value of the first is lower: 11500 for the first, 15400 for the second.

Compared with B4, B1 is higher in “fluorescence intensity in solution (S) after antigen binding” value: 9140 for the first, 20500 for the second.

Going from B2 to B3, the “fluorescence intensity in solution (S) before antigen binding” value rises from 2240 to 2280.

Compared with B4, B1 is higher in “fluorescence intensity in solution (S) before antigen binding” value: 1780 for the first, 2780 for the second.

What follows are binders tested against T5, anti-Inf-A binding antibody (assay: SPR biosensor, anti-Inf-A antibody immobilised on Au substrate, BSA blocked).
T5 construct: also called anti-Inf-A antibody; anti-inf A antibody
Excerpt: Referring to FIG. 17A, anti-Inf-A and anti-Inf-B binding antibodies were immobilized on an Au substrate using an SPR biosensor, and the blank surface of the substrate was blocked with a BSA solution to treat Inf-A and Inf-B.

Compared with B4, B1 is 2.6-fold lower in Kd: 37 µM for the first, 14 µM for the second. The second binds more tightly here.

The binders below were run against T6, anti-Inf-B binding antibody (assay: SPR biosensor, anti-Inf-B antibody immobilised on Au substrate, BSA blocked).
T6 construct: also called anti-Inf-B antibody

First: B4
Second: B1
The Kd of the first is 4-fold higher: 56 µM for the first, 14 µM for the second.

The binders below were run against T7, C-reactive protein (UniProt P02741 19-224) (assay: labelled peptide on protein immobilised on microplate; fluorescence at bottom).
T7 construct: also called CRP
T7 sequence (looked up): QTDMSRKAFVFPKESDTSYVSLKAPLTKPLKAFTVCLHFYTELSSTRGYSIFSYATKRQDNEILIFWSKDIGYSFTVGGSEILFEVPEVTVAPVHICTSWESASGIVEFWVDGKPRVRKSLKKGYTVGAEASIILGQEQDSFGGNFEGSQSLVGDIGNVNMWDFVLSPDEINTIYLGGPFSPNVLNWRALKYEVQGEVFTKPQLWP

B2: no binding.
B3: no binding.
B4: no binding.
B1: no binding.

These binders were tested against protein-A (UniProt P38507 37-477) in the same assay as above.

B2: no binding.
B3: no binding.
B4: no binding.
B1: no binding.

What follows are binders tested against T8, BSA (UniProt P02769 25-607) in the same assay as above.
T8 construct: also called bovine serum albumin
T8 sequence (P02769 25-607 limits assumed): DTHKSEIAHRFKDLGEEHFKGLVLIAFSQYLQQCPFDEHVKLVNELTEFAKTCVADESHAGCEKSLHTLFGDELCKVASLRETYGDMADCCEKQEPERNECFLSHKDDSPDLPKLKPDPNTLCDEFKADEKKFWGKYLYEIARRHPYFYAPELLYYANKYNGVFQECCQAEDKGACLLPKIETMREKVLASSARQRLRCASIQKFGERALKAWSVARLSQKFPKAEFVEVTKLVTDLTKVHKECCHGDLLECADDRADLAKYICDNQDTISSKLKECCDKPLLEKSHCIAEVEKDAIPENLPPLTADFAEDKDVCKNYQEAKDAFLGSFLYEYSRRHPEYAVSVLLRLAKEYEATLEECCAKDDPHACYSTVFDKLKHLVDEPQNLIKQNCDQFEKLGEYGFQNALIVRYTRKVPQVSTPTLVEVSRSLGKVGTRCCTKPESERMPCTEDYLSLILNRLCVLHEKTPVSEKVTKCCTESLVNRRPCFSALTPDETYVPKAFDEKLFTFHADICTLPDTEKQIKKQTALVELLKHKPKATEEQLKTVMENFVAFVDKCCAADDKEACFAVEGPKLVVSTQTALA

B2: no binding.
B3: no binding.
B4: no binding.
B1: no binding.

Each binder was assayed against T5, anti-Inf-A binding antibody (assay: dissociation of labelled peptide from anti-Inf-A antibody on treatment with Inf-A; fluorescence).

First: B2
Second: B3
The “relative change in fluorescence signal” value of the first is lower: 130% for the first, 225% for the second.

First: B4
Second: B1
The “relative change in fluorescence signal” value of the first is higher: 352% for the first, 176% for the second.

The binders below were run against T6, anti-Inf-B binding antibody (assay: dissociation of labelled peptide from anti-Inf-B antibody on treatment with Inf-B; fluorescence).

Going from B2 to B3, the “relative change in fluorescence signal” value rises from 145% to 151%.

First: B4
Second: B1
The “relative change in fluorescence signal” value of the first is higher: 199% for the first, 180% for the second.

What follows are binders tested against T2, Anti-HRP antibody(r) (assay: fluorescence in solution against HRP concentration (0.3 to 100 µM); peptide on immobilised rabbit anti-HRP antibody).
Excerpt: In this experiment, an anti-HRP antibody from a rabbit immobilized on a microplate was used as the binding antibody and HRP was used as the antigen.

B2 and B3 are within 1.5-fold of each other in Kd: 1.65 µM for the first, 1.48 µM for the second.

B4 and B1 are within 1.5-fold of each other in Kd: 3.11 µM for the first, 3.29 µM for the second.
